From publication PMC3660597, “Investigation of Specificity Determinants in Bacterial tRNA-Guanine Transglycosylase Reveals Queuine, the Substrate of Its Eucaryotic Counterpart, as Inhibitor” (PLoS ONE, 2013)

Legend:
[1] = substrate: NCc1c[nH]c2nc(N)[nH]c(=O)c12; experiment: [3H]-preQ1 incorporation into tRNA(Tyr), scintillation counting; type: biochemical, Zymomonas mobilis; conditions: 15 µM E. coli tRNA(Tyr), 200 mM HEPES pH 7.3, 20 mM MgCl2, 37°C, labelled compound
Excerpt: [3H]-preQ1 incorporation into tRNA(Tyr), scintillation counting on Z. mobilis Tgt ("wild type" Tgt = Tgt(Tyr106Phe))

purified protein = substrate: Nc1nc2nc[nH]c2c(=O)[nH]1; experiment: purified protein; type: biochemical, Zymomonas mobilis; conditions: 15 µM E. coli tRNA(Tyr), 200 mM HEPES pH 7.3, 20 mM MgCl2, 37°C, labelled compound

Row | Protein | Km [1] [µmol/L] | kcat [1] [s⁻¹] | Km (purified protein) [µmol/L] | kcat (purified protein) [s⁻¹]
1 | Z. mobilis Tgt ("wild type" Tgt = Tgt(Tyr106Phe)) (Zymomonas mobilis subsp. mobilis ZM4 = ATCC 31821; V233G/Y106F) (protein, recombinant from pET9d-ZM-Y106F in E. coli BL21(DE3)/pLysS, purified; homodimer; all variants including "wild type" carry Tyr106Phe) VEATAQETDRPRFSFSIAAREGKARTGTIEMKRGVIRTPAFMPVGTAATVKALKPETVRATGADIILGNTYHLMLRPGAERIAKLGGLHSFMGWDRPILTDSGGFQVMSLSSLTKQSEEGVTFKSHLDGSRHMLSPERSIEIQHLLGSDIVMAFDECTPYPATPSRAASSMERSMRWAKRSRDAFDSRKEQAENAALFGIQQGSVFENLRQQSADALAEIGFDGYAVGGLAGGEGQDEMFRVLDFSVPMLPDDKPHYLMGVGKPDDIVGAVERGIDMFDCVLPTRSGRNGQAFTWDGPINIRNARFSEDLTPLDSECHCAVCQKWSRAYIHHLIRAGEILGAMLMTEHNIAFYQQLMQKIRDSISEGRFSQFAQDFRARYFARNS | 0.6 ± 0.1 | 0.0063 ± 0.0002 | 1.0 ± 0.2 | 0.0046 ± 0.0003
2 | Z. mobilis Tgt ("wild type" Tgt = Tgt(Tyr106Phe)) (Zymomonas mobilis subsp. mobilis ZM4 = ATCC 31821; C158V/Y106F) (protein, recombinant from pET9d-ZM-Y106F in E. coli BL21(DE3)/pLysS, purified; homodimer; all variants including "wild type" carry Tyr106Phe) VEATAQETDRPRFSFSIAAREGKARTGTIEMKRGVIRTPAFMPVGTAATVKALKPETVRATGADIILGNTYHLMLRPGAERIAKLGGLHSFMGWDRPILTDSGGFQVMSLSSLTKQSEEGVTFKSHLDGSRHMLSPERSIEIQHLLGSDIVMAFDEVTPYPATPSRAASSMERSMRWAKRSRDAFDSRKEQAENAALFGIQQGSVFENLRQQSADALAEIGFDGYAVGGLAVGEGQDEMFRVLDFSVPMLPDDKPHYLMGVGKPDDIVGAVERGIDMFDCVLPTRSGRNGQAFTWDGPINIRNARFSEDLTPLDSECHCAVCQKWSRAYIHHLIRAGEILGAMLMTEHNIAFYQQLMQKIRDSISEGRFSQFAQDFRARYFARNS | 16.0 ± 2.4 | 0.035 ± 0.0008 | 1.4 ± 0.2 | 0.0275 ± 0.0002
3 | Z. mobilis Tgt ("wild type" Tgt = Tgt(Tyr106Phe)) (Zymomonas mobilis subsp. mobilis ZM4 = ATCC 31821; Y106F) (protein, recombinant from pET9d-ZM-Y106F in E. coli BL21(DE3)/pLysS, purified; homodimer; all variants including "wild type" carry Tyr106Phe) VEATAQETDRPRFSFSIAAREGKARTGTIEMKRGVIRTPAFMPVGTAATVKALKPETVRATGADIILGNTYHLMLRPGAERIAKLGGLHSFMGWDRPILTDSGGFQVMSLSSLTKQSEEGVTFKSHLDGSRHMLSPERSIEIQHLLGSDIVMAFDECTPYPATPSRAASSMERSMRWAKRSRDAFDSRKEQAENAALFGIQQGSVFENLRQQSADALAEIGFDGYAVGGLAVGEGQDEMFRVLDFSVPMLPDDKPHYLMGVGKPDDIVGAVERGIDMFDCVLPTRSGRNGQAFTWDGPINIRNARFSEDLTPLDSECHCAVCQKWSRAYIHHLIRAGEILGAMLMTEHNIAFYQQLMQKIRDSISEGRFSQFAQDFRARYFARNS | 0.9 ± 0.1 | 0.106 ± 0.0027 | 1.2 ± 0.2 | 0.0558 ± 0.0001
4 | Z. mobilis Tgt ("wild type" Tgt = Tgt(Tyr106Phe)) (Zymomonas mobilis subsp. mobilis ZM4 = ATCC 31821; C158V/V233G/Y106F) (protein, recombinant from pET9d-ZM-Y106F in E. coli BL21(DE3)/pLysS, purified; homodimer; all variants including "wild type" carry Tyr106Phe) VEATAQETDRPRFSFSIAAREGKARTGTIEMKRGVIRTPAFMPVGTAATVKALKPETVRATGADIILGNTYHLMLRPGAERIAKLGGLHSFMGWDRPILTDSGGFQVMSLSSLTKQSEEGVTFKSHLDGSRHMLSPERSIEIQHLLGSDIVMAFDEVTPYPATPSRAASSMERSMRWAKRSRDAFDSRKEQAENAALFGIQQGSVFENLRQQSADALAEIGFDGYAVGGLAGGEGQDEMFRVLDFSVPMLPDDKPHYLMGVGKPDDIVGAVERGIDMFDCVLPTRSGRNGQAFTWDGPINIRNARFSEDLTPLDSECHCAVCQKWSRAYIHHLIRAGEILGAMLMTEHNIAFYQQLMQKIRDSISEGRFSQFAQDFRARYFARNS | 13.5 ± 3.1 | 0.001 ± 0.0003 | 2.7 ± 0.3 | 0.0006 ± 0.0001
